The supplement of paper PMC10567573

B1: TFE3 (parent)
chain: FPSDHLGDLGDPFHLGLEDILMEE

Variants of: B1
Assay: protein stability index of a GFP-peptide fusion (GPS, HEK-293T) (PSI 1-6); higher = more stable
Details: c terminus: a fixed tail appended
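Note: lentivirally expressed fusions sorted by FACS into six bins by GFP to DsRed ratio, PSI derived from sequencing read proportions per bin multiplied by bin number.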

| Variant | protein stability index |
| --- | --- |
| FPSDHLGDHGDPFHLGLEDILMEE | 3.66 |
| FPSDHLGDCGDPFHLGLEDILMEE | 3.5 |
| FPSDHLGDAGDPFHLGLEDILMEE | 3.63 |
| FPSDHLGDQGDPFHLGLEDILMEE | 3.64 |
| FPSDHLGDNGDPFHLGLEDILMEE | 4.32 |
| FPSDHLGDTGDPFHLGLEDILMEE | 3.79 |
| FPSDHLGDMGDPFHLGLEDILMEE | 3.74 |
| FPSDHLGDFGDPFHLGLEDILMEE | 3.45 |
| FPSDHLGDEGDPFHLGLEDILMEE | 4 |
| FPSDHLGDPGDPFHLGLEDILMEE | 3.42 |
| FPSDHLGDRGDPFHLGLEDILMEE | 3.66 |
| FPSDHLGDWGDPFHLGLEDILMEE | 2.19 |
| FPSDHLGDVGDPFHLGLEDILMEE | 3.48 |
| FPSDHLGDKGDPFHLGLEDILMEE | 3.94 |
| FPSDHLGDYGDPFHLGLEDILMEE | 3.29 |
| FPSDHLGDSGDPFHLGLEDILMEE | 3.69 |
| FPSDHLGDIGDPFHLGLEDILMEE | 3.54 |
| FPSDHLGDDGDPFHLGLEDILMEE | 4.5 |
| FPSDHLGDGGDPFHLGLEDILMEE | 3.54 |
| FPSDHLGDLGDPFYLGLEDILMEE | 3.32 |
| FPSDHLGDLGDPFALGLEDILMEE | 4 |
| FPSDHLGDLGDPFRLGLEDILMEE | 3.52 |
| FPSDHLGDLGDPFTLGLEDILMEE | 3.64 |
| FPSDHLGDLGDPFWLGLEDILMEE | 2.27 |

| Variant | protein stability index |
| --- | --- |
| FPSDHLGDLGDPFSLGLEDILMEE | 4.25 |
| FPSDHLGDLGDPFDLGLEDILMEE | 4.61 |
| FPSDHLGDLGDPFGLGLEDILMEE | 4.14 |
| FPSDHLGDLGDPFKLGLEDILMEE | 3.7 |
| FPSDHLGDLGDPFPLGLEDILMEE | 4.66 |
| FPSDHLGDLGDPFQLGLEDILMEE | 4.09 |
| FPSDHLGDLGDPFNLGLEDILMEE | 3.67 |
| FPSDHLGDLGDPFELGLEDILMEE | 4.36 |
| FPSDHLGDLGDPFVLGLEDILMEE | 3.04 |
| FPSDHLGDLGDPFLLGLEDILMEE | 3.38 |
| FPSDHLGDLGDPFFLGLEDILMEE | 3.09 |
| FPSDHLGDLGDPFILGLEDILMEE | 3.44 |
| FPSDHLGDLGDPFMLGLEDILMEE | 3.74 |
| FPSDHLGDLGDPFCLGLEDILMEE | 2.66 |
| FPSDHLGDLGDPFHHGLEDILMEE | 3.93 |
| FPSDHLGDLGDPFHCGLEDILMEE | 3.31 |
| FPSDHLGDLGDPFHDGLEDILMEE | 4.45 |
| FPSDHLGDLGDPFHKGLEDILMEE | 3.1 |
| FPSDHLGDLGDPFHFGLEDILMEE | 3.36 |
| FPSDHLGDLGDPFHVGLEDILMEE | 3.24 |
| FPSDHLGDLGDPFHRGLEDILMEE | 3.61 |
| FPSDHLGDLGDPFHIGLEDILMEE | 3.05 |
| FPSDHLGDLGDPFHWGLEDILMEE | 3.49 |
| FPSDHLGDLGDPFHEGLEDILMEE | 4.21 |

| Variant | protein stability index |
| --- | --- |
| FPSDHLGDLGDPFHYGLEDILMEE | 3.56 |
| FPSDHLGDLGDPFHMGLEDILMEE | 3.35 |
| FPSDHLGDLGDPFHNGLEDILMEE | 3.77 |
| FPSDHLGDLGDPFHQGLEDILMEE | 3.87 |
| FPSDHLGDLGDPFHGGLEDILMEE | 3.63 |
| FPSDHLGDLGDPFHSGLEDILMEE | 3.67 |
| FPSDHLGDLGDPFHTGLEDILMEE | 3.85 |
| FPSDHLGDLGDPFHPGLEDILMEE | 3.7 |
| FPSDHLGDLGDPFHAGLEDILMEE | 4.29 |
| FPSDHLGDLGDPTHLGLEDILMEE | 4.93 |
| FPSDHLGDLGDPNHLGLEDILMEE | 4.97 |
| FPSDHLGDLGDPGHLGLEDILMEE | 4.97 |
| FPSDHLGDLGDPQHLGLEDILMEE | 4.61 |
| FPSDHLGDLGDPLHLGLEDILMEE | 4.25 |
| FPSDHLGDLGDPKHLGLEDILMEE | 4.89 |
| FPSDHLGDLGDPVHLGLEDILMEE | 4.89 |
| FPSDHLGDLGDPWHLGLEDILMEE | 1.76 |
| FPSDHLGDLGDPEHLGLEDILMEE | 5.21 |
| FPSDHLGDLGDPYHLGLEDILMEE | 2.82 |
| FPSDHLGDLGDPDHLGLEDILMEE | 5.22 |
| FPSDHLGDLGDPSHLGLEDILMEE | 4.87 |
| FPSDHLGDLGDPAHLGLEDILMEE | 4.62 |
| FPSDHLGDLGDPHHLGLEDILMEE | 5.09 |
| FPSDHLGDLGDPMHLGLEDILMEE | 4.7 |

| Variant | protein stability index |
| --- | --- |
| FPSDHLGDLGDPIHLGLEDILMEE | 4.34 |
| FPSDHLGDLGDPCHLGLEDILMEE | 4.62 |
| FPSDHLGDLGDPPHLGLEDILMEE | 4.91 |
| FPSDHLGDLGDPRHLGLEDILMEE | 4.74 |
| FPSDHLGDLSDPFHLGLEDILMEE | 3.15 |
| FPSDHLGDLLDPFHLGLEDILMEE | 3.05 |
| FPSDHLGDLVDPFHLGLEDILMEE | 3.63 |
| FPSDHLGDLDDPFHLGLEDILMEE | 3.37 |
| FPSDHLGDLFDPFHLGLEDILMEE | 2.54 |
| FPSDHLGDLPDPFHLGLEDILMEE | 3.47 |
| FPSDHLGDLADPFHLGLEDILMEE | 3.41 |
| FPSDHLGDLMDPFHLGLEDILMEE | 3.33 |
| FPSDHLGDLWDPFHLGLEDILMEE | 2.76 |
| FPSDHLGDLRDPFHLGLEDILMEE | 3.3 |
| FPSDHLGDLYDPFHLGLEDILMEE | 2.21 |
| FPSDHLGDLEDPFHLGLEDILMEE | 3.67 |
| FPSDHLGDLKDPFHLGLEDILMEE | 3.14 |
| FPSDHLGDLQDPFHLGLEDILMEE | 3.05 |
| FPSDHLGDLCDPFHLGLEDILMEE | 2.93 |
| FPSDHLGDLNDPFHLGLEDILMEE | 2.97 |
| FPSDHLGDLHDPFHLGLEDILMEE | 2.95 |
| FPSDHLGDLTDPFHLGLEDILMEE | 3.46 |
| FPSDHLGDLIDPFHLGLEDILMEE | 3.04 |
| FPSDHLGDLGDPFHLFLEDILMEE | 2.16 |

| Variant | protein stability index |
| --- | --- |
| FPSDHLGDLGDPFHLALEDILMEE | 3.58 |
| FPSDHLGDLGDPFHLDLEDILMEE | 3.59 |
| FPSDHLGDLGDPFHLELEDILMEE | 3.96 |
| FPSDHLGDLGDPFHLCLEDILMEE | 2.7 |
| FPSDHLGDLGDPFHLHLEDILMEE | 3.25 |
| FPSDHPGDLGDPFHLGLEDILMEE | 3.57 |
| FPSDHRGDLGDPFHLGLEDILMEE | 2.98 |
| FPSDHTGDLGDPFHLGLEDILMEE | 3.79 |
| FPSDHQGDLGDPFHLGLEDILMEE | 3.6 |
| FPSDHWGDLGDPFHLGLEDILMEE | 1.75 |
| FPSDHYGDLGDPFHLGLEDILMEE | 2.78 |
| FPSDHVGDLGDPFHLGLEDILMEE | 3.81 |
| FPSDHNGDLGDPFHLGLEDILMEE | 3.85 |
| FPSDHMGDLGDPFHLGLEDILMEE | 3.71 |
| FPSDHKGDLGDPFHLGLEDILMEE | 3.22 |
| FPSDHSGDLGDPFHLGLEDILMEE | 3.35 |
| FPSDHLGDLGDLFHLGLEDILMEE | 2.81 |
| FPSDHLGDLGDAFHLGLEDILMEE | 3.11 |
| FPSDHLGDLGDEFHLGLEDILMEE | 4.15 |
| FPSDHLGDLGDDFHLGLEDILMEE | 4.35 |
| FPSDHLGDLGDIFHLGLEDILMEE | 3.23 |
| FPSDHLGDLGDWFHLGLEDILMEE | 2.71 |
| FPSDHLGDLGDYFHLGLEDILMEE | 3.4 |
| FPSDHLGDLGDRFHLGLEDILMEE | 4.1 |

| Variant | protein stability index |
| --- | --- |
| FPSDHLGDLGDMFHLGLEDILMEE | 3.46 |
| FPSDHLGDLGDQFHLGLEDILMEE | 4.29 |
| FPSDHLGDLGDCFHLGLEDILMEE | 3.62 |
| FPSDHLGDLGDTFHLGLEDILMEE | 4.24 |
| FPSDHLGDLGDGFHLGLEDILMEE | 4.1 |
| FPSDHLGDLGDHFHLGLEDILMEE | 3.98 |
| FPSDHLGDLGDVFHLGLEDILMEE | 3.5 |
| FPSDHLGDLGDNFHLGLEDILMEE | 4.3 |
| FPSDHLGDLGDFFHLGLEDILMEE | 4.01 |
| FPSDHLGDLGDKFHLGLEDILMEE | 4.02 |
| FPSDHLGDLGDSFHLGLEDILMEE | 4.84 |
| FPSDHLQDLGDPFHLGLEDILMEE | 3.67 |
| FPSDHLEDLGDPFHLGLEDILMEE | 3.92 |
| FPSDHLNDLGDPFHLGLEDILMEE | 3.43 |
| FPSDHLWDLGDPFHLGLEDILMEE | 2.73 |
| FPSDHLRDLGDPFHLGLEDILMEE | 3.36 |
| FPSDHLIDLGDPFHLGLEDILMEE | 3.12 |
| FPSDHLKDLGDPFHLGLEDILMEE | 3.07 |
| FPSDHLYDLGDPFHLGLEDILMEE | 3.22 |
| FPSDHLVDLGDPFHLGLEDILMEE | 3.77 |
| FPSDHLPDLGDPFHLGLEDILMEE | 4.3 |
| FPSDHLMDLGDPFHLGLEDILMEE | 3.29 |
| FPSDHLTDLGDPFHLGLEDILMEE | 3.3 |
| FPSDHLHDLGDPFHLGLEDILMEE | 3.11 |

| Variant | protein stability index |
| --- | --- |
| FPSDHLLDLGDPFHLGLEDILMEE | 3.41 |
| FPSDHLFDLGDPFHLGLEDILMEE | 2.69 |
| FPSDHLSDLGDPFHLGLEDILMEE | 3.73 |
| FPSDHLCDLGDPFHLGLEDILMEE | 2.89 |
| FPSDHLADLGDPFHLGLEDILMEE | 3.94 |
| FPSDHLDDLGDPFHLGLEDILMEE | 4.3 |
| FPSDHLGMLGDPFHLGLEDILMEE | 2.96 |
| FPSDHLGFLGDPFHLGLEDILMEE | 2.52 |
| FPSDHLGHLGDPFHLGLEDILMEE | 2.73 |
| FPSDHLGKLGDPFHLGLEDILMEE | 2.42 |
| FPSDHLGGLGDPFHLGLEDILMEE | 3.09 |
| FPSDHLGLLGDPFHLGLEDILMEE | 2.33 |
| FPSDHLGRLGDPFHLGLEDILMEE | 2.15 |
| FPSDHLGYLGDPFHLGLEDILMEE | 2.14 |
| FPSDHLGSLGDPFHLGLEDILMEE | 3.19 |
| FPSDHLGNLGDPFHLGLEDILMEE | 3.28 |
| FPSDHLGILGDPFHLGLEDILMEE | 3.03 |
| FPSDHLGALGDPFHLGLEDILMEE | 2.96 |
| FPSDHLGELGDPFHLGLEDILMEE | 3.73 |
| FPSDHLGQLGDPFHLGLEDILMEE | 3.07 |
| FPSDHLGWLGDPFHLGLEDILMEE | 1.98 |
| FPSDHLGCLGDPFHLGLEDILMEE | 2.88 |
| FPSDHLGTLGDPFHLGLEDILMEE | 2.36 |
| FPSDHLGVLGDPFHLGLEDILMEE | 3.1 |

| Variant | protein stability index |
| --- | --- |
| FPSDHLGPLGDPFHLGLEDILMEE | 3.31 |
| FPSDHLGDLGFPFHLGLEDILMEE | 2.66 |
| FPSDHLGDLGLPFHLGLEDILMEE | 2.89 |
| FPSDHLGDLGWPFHLGLEDILMEE | 1.89 |
| FPSDHLGDLGSPFHLGLEDILMEE | 2.13 |
| FPSDHLGDLGAPFHLGLEDILMEE | 3.23 |
| FPSDHLGDLGMPFHLGLEDILMEE | 3.08 |
| FPSDHLGDLGIPFHLGLEDILMEE | 3.23 |
| FPSDHLGDLGYPFHLGLEDILMEE | 2.67 |
| FPSDHLGDLGRPFHLGLEDILMEE | 3.72 |
| FPSDHLGDLGEPFHLGLEDILMEE | 4.24 |
| FPSDHLGDLGPPFHLGLEDILMEE | 3.87 |
| FPSDHLGDLGKPFHLGLEDILMEE | 3.42 |
| FPSDHLGDLGCPFHLGLEDILMEE | 2.74 |
| FPSDHLGDLGQPFHLGLEDILMEE | 4.41 |
| FPSDHLGDLGGPFHLGLEDILMEE | 3.52 |
| FPSDHLGDLGNPFHLGLEDILMEE | 2.12 |
| FPSDHLGDLGVPFHLGLEDILMEE | 3.32 |
| FPSDHLGDLGHPFHLGLEDILMEE | 2.27 |
| FPSDHLGDLGTPFHLGLEDILMEE | 2.92 |
